This is an account of results in patent US20100015126A1, “Methods of Binding of Cross-Beta Structures By Chaperones” (priority 2006, published 2010).

The target in the assay is T1, human BiP (Homo sapiens, UniProt P11021).
T1 construct: The human BiP gene except the signal peptide encoding region was obtained from Geneart (Germany); linker […]; made in house; host or cells: HEK 293E cells, transient transfection, PABC674 vector; secreted into the medium
The experiment in a line: ELISA: binding of BiP-FLAG-His to immobilized (misfolded) protein ligands. The settings on record: ligands coated at 5 μg/ml; 6BB peptides and oxLDL 50 μg/ml. As to the method: Enzyme Linked Immunosorbent Assay for Testing of Chaperone Binding to Misfolded Proteins
Binding of chaperones to immobilized (misfolded) protein ligands was determined using an enzyme linked immuno sorbent assay (ELISA) approach. For this purpose 50 μl/well of potential ligands at indicated concentrations or coat buffer only for control and background measurement purposes, were coated overnight at 4° C. or coated for 1 h at room temperature, with motion, in 50 mM NaHCO3 pH 9.6 (coat buffer). In general, ligands were coated at 5 μg/ml, unless stated otherwise. For example, BiP binding peptides 6BB# and oxLDL were coated at 50 μg/ml. Native haemoglobin (Sigma-Aldrich, H7379), albumin, IgIV Gammagard and ovalbumin controls were prepared from lyophilized stocks. The controls were prepared by dissolving lyophilized proteins at 1 mg/ml in PBS upon resuspending by pipetting, followed by a 30 minutes period at the roller device, at room temperature. The protein solutions were centrifuged for 10 minutes at 16,000*g and diluted in coat buffer. […] After 5 washes with wash buffer followed by two washes with PBS, binding of antibodies was assessed. […] Plates were read at 450 nm. Triplicates were averaged and standard deviations calculated. […] Subsequently, sub-optimal concentrations of chaperones for binding to misfolded protein ligands are determined, and these concentrations are used for inhibition studies. […]
On the technique in general: ELISA stands for enzyme-linked immunosorbent assay.

T1 sequence (P11021 19-654): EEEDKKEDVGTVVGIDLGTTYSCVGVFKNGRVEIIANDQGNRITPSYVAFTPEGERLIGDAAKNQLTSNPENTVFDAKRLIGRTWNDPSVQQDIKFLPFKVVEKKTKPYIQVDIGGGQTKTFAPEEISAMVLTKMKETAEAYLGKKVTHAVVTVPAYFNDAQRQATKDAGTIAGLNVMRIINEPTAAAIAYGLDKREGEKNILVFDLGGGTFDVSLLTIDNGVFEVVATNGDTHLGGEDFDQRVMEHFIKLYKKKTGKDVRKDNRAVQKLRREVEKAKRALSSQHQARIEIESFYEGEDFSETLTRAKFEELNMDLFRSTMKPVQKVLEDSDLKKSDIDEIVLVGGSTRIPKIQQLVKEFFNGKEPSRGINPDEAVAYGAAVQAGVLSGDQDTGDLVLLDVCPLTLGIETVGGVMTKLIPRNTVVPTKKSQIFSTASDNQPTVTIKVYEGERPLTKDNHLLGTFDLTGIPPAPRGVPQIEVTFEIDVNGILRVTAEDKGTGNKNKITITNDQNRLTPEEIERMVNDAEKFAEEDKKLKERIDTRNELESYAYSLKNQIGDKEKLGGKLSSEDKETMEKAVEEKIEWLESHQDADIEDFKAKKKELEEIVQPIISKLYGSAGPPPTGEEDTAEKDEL

B1: dOVA standard: heat-denatured chicken ovalbumin (protein)
chain: GSIGAASMEFCFDVFKELKVHHANENIFYCPIAIMSALAMVYLGAKDSTRTQINKVVRFDKLPGFGDSIEAQCGTSVNVHSSLRDILNQITKPNDVYSFSLASRLYAEERYPILPEYLQCVKELYRGGLEPINFQTAADQARELINSWVESQTNGIIRNVLQPSSVDSQTAMVLVNAIVFKGLWEKAFKDEDTQAMPFRVTEQESKPVQMMYQIGLFRVASMASEKMKILELPFASGTMSMLVLLPDEVSGLEQLESIINFEKLTEWTSSNVMEERKIKVYLPRMKMEEKYNLTSVLMAMGITDVFSSSANLSGISSAESLKISQAVHAAHAEINEAGREVVGSAEAGVDAASVSEEFRADHPFLFCIKHIATNAVLFFGRCVSP
For the molecule B1, the “Binding of concentration series of BiP to coated ligand” value is on record as “has been established”.
